Reference: PMC6684588

Columns and labels:
activin A [1] = molecular target: activin A (UniProt P08476)
activin B [2] = molecular target: activin B (UniProt P09529)
[3] = molecular target: growth differentiation factor 11 (GDF11) (UniProt O95390)
myostatin (GDF8) [4] = molecular target: myostatin (GDF8) (UniProt O14793)
activin A [5] = molecular target: activin A (UniProt P08476); remark: listed apart in the source
activin B [6] = molecular target: activin B (UniProt P09529); remark: listed apart in the source
[7] = molecular target: growth differentiation factor 11 (GDF11) (UniProt O95390); remark: listed apart in the source
myostatin (GDF8) [8] = molecular target: myostatin (GDF8) (UniProt O14793); remark: listed apart in the source
ACE-083 (human) = test: SPR; detailed kinetics: ACE-083 captured on immobilized goat anti-human Fc-specific antibody; two-fold series of BMP6 (0.156 nM-5 nM) and BMP7 (0.078 nM-5 nM) injected in duplicate, association 210 sec, dissociation 600 sec, 100 μl/min; global fit to 1:1 model with mass transport term (BIAevaluation); means of two flow cells
[9] = molecular target: ACE-083 (FST291-Fc fusion protein) (human); test: SPR; Biacore T100, capture format at 37 °C; ACE-083 captured on an anti-human IgG Fc sensor chip, ligands injected as analytes in a concentration series in duplicate; association 210 sec, dissociation 600 sec (1200 sec for activin A and GDF11); global fit to a 1:1 binding model with mass transfer term; apparent KD

BMP7, sequence (P18075 293-431): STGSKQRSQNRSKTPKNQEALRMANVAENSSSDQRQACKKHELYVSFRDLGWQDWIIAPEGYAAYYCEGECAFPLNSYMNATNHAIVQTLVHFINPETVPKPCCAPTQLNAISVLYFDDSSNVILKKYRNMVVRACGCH
myostatin (GDF8), sequence (O14793 267-375): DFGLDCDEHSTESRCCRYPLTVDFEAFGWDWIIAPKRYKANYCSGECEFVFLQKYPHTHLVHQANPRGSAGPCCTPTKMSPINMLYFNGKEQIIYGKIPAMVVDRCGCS

Molecule | Kd [9] [nM] | koff [9] [s⁻¹] | kon [9] [M⁻¹ s⁻¹] | also measured
ACE-083 (FST291-Fc fusion protein) |  |  |  | IC50 of inhibition of activin A signaling through its cognate receptors, CAGA12 dual-luciferase reporter-gene assay in A204 cells (activin A [1]): 0.0392 nM; IC50 of inhibition of activin B signaling through its cognate receptors, CAGA12 dual-luciferase reporter-gene assay in A204 cells (activin B [2]): 0.0492 nM; IC50 of inhibition of GDF11 signaling through its cognate receptors, CAGA12 dual-luciferase reporter-gene assay in A204 cells [3]: 0.0759 nM; IC50 of inhibition of GDF8 signaling through its cognate receptors, CAGA12 dual-luciferase reporter-gene assay in A204 cells (myostatin (GDF8) [4]): 0.676 nM
ACE-083 (Fc fusion) |  |  |  | Supplementary Figure S2: IC50 of ACE-083 for inhibition of activin A signalling through its cognate receptors, luciferase reporter-gene assay in A204 cells (representative curve of three experiments) (activin A [5]): 4.63 ng/mL; Supplementary Figure S2: IC50 of ACE-083 for inhibition of activin B signalling through its cognate receptors, luciferase reporter-gene assay in A204 cells (representative curve of three experiments) (activin B [6]): 4.75 ng/mL; Supplementary Figure S2: IC50 of ACE-083 for inhibition of GDF11 signalling through its cognate receptors, luciferase reporter-gene assay in A204 cells (representative curve of three experiments) [7]: 8.04 ng/mL; Supplementary Figure S2: IC50 of ACE-083 for inhibition of GDF8 signalling through its cognate receptors, luciferase reporter-gene assay in A204 cells (representative curve of three experiments) (myostatin (GDF8) [8]): 81.9 ng/mL
BMP7 (from UniProt P18075 293-431) (ligand) |  |  |  | Kd (ACE-083 (human)): 0.291 nM; koff (ACE-083 (human)): 0.00196 s⁻¹; kon (ACE-083 (human)): 6.75e+06 M⁻¹ s⁻¹
myostatin (GDF8) (from UniProt O14793 267-375) (ligand) | 0.348 | 0.000185 | 532000 | 
activin B (ligand) GLECDGRTNLCCRQQFFIDFRLIGWNDWIIAPTGYYGNYCEGSCPAYLAGVPGSASSFHTAVVNQYRMRGLNPGTVNSCCIPTKLSTMSMLYFDDEYNIVKRDVPNMIVEECGCA | 0.0103 | 0.000199 | 1.93e+07 | 

Continued, in another order:

Kd [9] [nM] | koff [9] [s⁻¹] | kon [9] [M⁻¹ s⁻¹] | Molecule | also measured
0.0788 | 0.000155 | 1.97e+06 | activin A (ligand) GLECDGKVNICCKKQFFVSFKDIGWNDWIIAPSGYHANYCEGECPSHIAGTSGSSLSFHSTVINHYRMRGHSPFANLKSCCVPTKLRPMSMLYYDDGQNIIKKDIQNMIVEECGCS | 
0.0154 | 7.2e-05 | 4.77e+06 | growth differentiation factor 11 (GDF11) (ligand) NLGLDCDEHSSESRCCRYPLTVDFEAFGWDWIIAPKRYKANYCSGQCEYMFMQKYPHTHLVQQANPRGSAGPCCTPTKMSPINMLYFNDKQQIIYGKIPGMVVDRCGCS | 
